# In PMC5667506, “Potent and selective inhibition of SH3 domains with dirhodium metalloinhibitors” (Chemical Science, 2015):
# Molecular target: T1, Lyn SH3 H96A mutant (Homo sapiens, UniProt P07948, H96A)
# T1 construct: The lyn SH3 domain was amplified by PCR using Phusion DNA polymerase; GST (N, cleaved yes); made in house; host or cells: E. coli BL21 (DE3)
# Assay: Binding to Lyn SH3 H96A mutant
# Settings: read-out: affinity
# Protocol: The remarkable 6 nM affinity, far stronger than that of any reported non-protein ligand for SH3 domains, led us to study the structural basis of the observed affinity. […] The H78A and H96A double mutant binds much more weakly (>5 μM). […] That the majority of the stabilization energy comes from the first histidine coordination is consistent with the negative cooperativity generally seen for axial coordination to rhodium(II): a second coordination in solution is roughly two orders of magnitude less favorable.[40]–[43]
# Abl SH3 domain preparation. The abl SH3 domain was amplified by PCR using Phusion DNA polymerase (Finnzymes). The
# reactions were performed following manufacture's protocol with Phusion HF buffer and 5% DMSO. Primers were designed as
# follows: 5'-[…]-3' (BamHI site underlined) and a reverse primer, 5'-
# -3' (EcoRI site underlined). The resultant product was digested with
# BamHI and EcoRI and subcloned into BamHI-EcoRI sites of pGex-KTO. Confirmed PCR fidelity by sequencing.
# Hck SH3 domain preparation. The hck SH3 domain was amplified by PCR using Phusion DNA polymerase (Finnzymes). The
# Lyn SH3 domain preparation. The lyn SH3 domain was amplified by PCR using Phusion DNA polymerase (Finnzymes). The […]
# assessed by SDS-PAGE using 12% Bis-Tris gels (Invitrogen). […]
# concentrated, and aliquoted for storage at –80 °C. Concentration was determined using the absorbance at 280 nm (NanoDrop, […]
# T1 sequence (P07948 63-123 H96A limits assumed): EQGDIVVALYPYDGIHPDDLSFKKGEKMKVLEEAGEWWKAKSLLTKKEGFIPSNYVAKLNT
substance,measurement,value
"AcVELARRPLPPLPN-NH2 (Ac-VELARRPLPPLPN-NH2; also: Glu2 side-chain carboxylate bound to Rh2(OAc)3) [S2E^Rh, rhodium(II) metallopeptide made from S2E peptide (Ac…-NH2) and Rh2(tfa)(OAc)3]",Kd,39 nM
